The text below walks through data of patent US20210024646A1 (FUDAN UNIVERSITY, published 2021).

Experiment [1] has as its target T1, CD73 on the surface of human tumor cells (human, UniProt P21589 27-549).
T1 construct: whole, on cells; One entry for endogenous CD73 on all cell lines; the cell line is named under assay or readout; also called CD73 receptors on the surface of tumor cells; tumor cell CD73
T1 sequence (looked up): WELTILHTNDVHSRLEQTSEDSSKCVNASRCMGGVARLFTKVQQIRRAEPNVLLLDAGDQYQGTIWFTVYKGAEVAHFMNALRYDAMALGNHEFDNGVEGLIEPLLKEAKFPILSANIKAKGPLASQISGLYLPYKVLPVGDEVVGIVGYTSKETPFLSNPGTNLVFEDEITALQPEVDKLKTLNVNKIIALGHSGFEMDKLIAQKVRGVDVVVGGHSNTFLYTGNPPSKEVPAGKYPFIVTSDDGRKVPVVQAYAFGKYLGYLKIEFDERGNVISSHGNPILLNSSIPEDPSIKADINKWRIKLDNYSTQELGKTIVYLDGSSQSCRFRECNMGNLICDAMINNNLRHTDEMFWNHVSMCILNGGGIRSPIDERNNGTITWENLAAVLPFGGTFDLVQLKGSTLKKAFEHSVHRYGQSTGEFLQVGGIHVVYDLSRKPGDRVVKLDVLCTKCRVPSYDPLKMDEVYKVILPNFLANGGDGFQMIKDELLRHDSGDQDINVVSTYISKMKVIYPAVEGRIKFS
In words: confocal microscopy, 5 µg/mL antibody, MDA-MB-231 cells. On the procedure: The antibodies (5 μg/mL) were incubated with the cells at 4° C. for 1 hour, or at 37° C. for 4 hours, and then placed under a laser scanning confocal microscope to observe the results.
MDA-MB-231 cells of 50% density were spread in a laser confocal culture dish, cultured at 37° C. for 16 hours, and then 5 μg/mL CD73 antibody was added. The cells were incubated at 37° C. for 4 hours or 4° C. for 1 hour, washed three times with PBS to remove the antibodies unbound to the cells, and immobilized with 4% paraformaldehyde at room temperature for 30 minutes. The cells were washed three times with PBS and permeabilized with 0.4% Triton X-100 for 10 minutes. The cells were washed three times with PBS, the Lamp-2 (rabbit anti-human) antibody was added and incubated at 37° C. for 1 hour to mark the position of cell lysosome. The unbound antibodies were washed off with PBS, and R-PE-labeled goat anti-human and Alexa Fluor 488-labeled donkey anti-rabbit secondary antibodies were added and incubated at 37° C. for 30 min.

The target in experiment [2] is T2, extracellular domain of human CD73 protein (CD73-ECD), C-terminus polyhistidine-tagged (human, UniProt P21589 27-547).
T2 construct: also called Human CD73-ECD; human recombinant CD73 enzyme (CD73 extracellular domain)
T2 sequence: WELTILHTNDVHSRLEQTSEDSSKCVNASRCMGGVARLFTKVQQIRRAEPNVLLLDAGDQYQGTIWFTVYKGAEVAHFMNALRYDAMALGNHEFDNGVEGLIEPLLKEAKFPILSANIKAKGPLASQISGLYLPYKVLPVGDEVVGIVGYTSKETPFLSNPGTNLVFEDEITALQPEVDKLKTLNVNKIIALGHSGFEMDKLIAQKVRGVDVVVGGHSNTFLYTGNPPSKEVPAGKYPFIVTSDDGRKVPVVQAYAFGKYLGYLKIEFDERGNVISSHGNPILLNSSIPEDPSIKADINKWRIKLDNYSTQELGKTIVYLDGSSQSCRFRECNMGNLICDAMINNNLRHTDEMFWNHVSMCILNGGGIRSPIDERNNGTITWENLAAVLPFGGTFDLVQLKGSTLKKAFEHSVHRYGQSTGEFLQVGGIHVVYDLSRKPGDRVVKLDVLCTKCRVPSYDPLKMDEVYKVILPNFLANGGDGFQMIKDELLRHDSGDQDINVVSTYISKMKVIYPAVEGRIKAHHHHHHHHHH
In words: ELISA, coated CD73-ECD. A general note: ELISA stands for enzyme-linked immunosorbent assay.

Where a chain is given by its changes, count along the chain named.

B1: Hu001c-14 (antibody, V domains shown)
VH: QVQLVQSGAEVKKPGASVKVSCKTSGYTFTNYYIYWVRQAPGQRLEWMGWIYPGNLNIKYNEKFKGRVTITADTSASTAYMELSSLRSEDTAVYYCARDDNYAWFAYWGQGTLVTVSS
VL: DIQMTQSPSSLSASVGDRVTITCKASQDVSTAVAWYQQKPGKAPKLLIYWTNTRHTGVPSRFSGSGSGTDHTLTISSLQPEDFATYYCQQHYSTPFTFGQGTKLEIK
notes: Humanized
As to B1, the binding result in experiment [1] and in experiment [2] was “binds” each time.

B2: Hu001c-15 (antibody, V domains shown)
VH: B1 VH
VL: B1 VL with A43S
notes: Humanized
Consider B2, for which the binding result in experiment [1] and in experiment [2] was “binds” throughout.
